Data on one molecule can be found in patent US20250241939A1, “NUCLEIC ACID-BASED DELIVERY SYSTEMS AND USES THEREOF” (Kodikaz Therapeutic Solutions, Inc., priority 2022, published 2025).

For this series, the system named is MM cell lines MM1S, JK6L, and RPMI. Briefly: Uptake of additional MM2 fragments, fluorescent microscopy. The class given is cell-based. The conditions noted are these: Fluorescein 12 dCTP or 5′FAM labelling. As for the experimental part:
FIG. 21 provides microcopy images showing uptake of 5′ fluorescently labelled synthetic DNA fragments derived from a multiple myeloma ctDNA by MM cells (JK6L) or non-MM cells.
Additional fragments were generated to analyze further the sequence to identify a region that contributes to uptake by MM cells (e.g., a recognition sequence). The following sequences were generated with Fluorescein 12 dCTP or 5′FAM labelling:
The fluorescent DNA sequences were incubated with multiple cell lines (e.g., MM cell lines MM1S, JK6L, and RPMI, and non-MM cell lines HT1080, HCT116, and DU145) and uptake was evaluated by fluorescent microscopy. […] Specificity of uptake by MM cells was preserved as shown by a lack of uptake by HT1080 and HCT116 cells (FIG. 21).

B1: MM2 (88-168): fluorescently labelled fragment of MM2 (nucleic acid, listed as Homo sapiens)
DNA: CCAGGATGGAGTGCAAGGGATCTTGGCTCACCACAGCCTCCGCCTCTTGGGTTCAAGTGATTCTTCTGCCTCAGCCTCCC
modifications: DNA, all phosphodiester, methylation of C not given here; fluorescein label via fluorescein-12-dCTP or 5' FAM primer
Take B1: the “uptake by MM cells” value is “sufficient for uptake”.
